Assay results published in PMC11554844, “BEACH domain proteins function as cargo-sorting adaptors in secretory and endocytic pathways” (The Journal of Cell Biology, 2024).

Experiments:
Test in all cases: pull-down; GST-CTLA4 (201–215) immobilised on glutathione-sepharose beads, incubated overnight at 4°C with purified protein (1 µg MBP fusion, 1 µg NBEAL2, 0.2 µg LRBA, or purified 3xFlag-EGFP-NBEAL2 fragment); washed six times in 50 mM Tris-HCl pH 7.4, 150 mM NaCl, 1% Triton X-100; detected by blot (anti-NBEAL2, anti-LRBA, anti-Flag, anti-MBP)
Conditions in all cases: both partners purified
[1] = molecular target: T1, 3xFlag-EGFP-NBEAL2(1792-2754) (human, UniProt Q6ZNJ1-1 1792-2754)
T1 construct: NBEAL2, human, C-terminal fragment with the PH-BEACH-WD40 domains; The legend's upper limit 2794 differs from the plasmid's name; also called C-terminal fragment of NBEAL2; C-terminal (PH-BEACH-WD40 domains) fragment of NBEAL2; source: purified; not shown: 3xFlag, N-terminal, kept; EGFP, N-terminal, kept

[2] = molecular target: T2, Purified full-length untagged LRBA (human, UniProt P50851-1 1-2863)
T2 construct: LRBA, human; also called 3xFlag-EGFP-SUMOstar-LRBA after SUMOstar protease; source: FreeStyle 293-F, transiently transfected, purified (GFP-Trap agarose, eluted with SUMOstar protease); not shown: 3xFlag, N-terminal, cleaved; EGFP, N-terminal, cleaved; SUMOstar, N-terminal, cleaved

[3] = molecular target: T3, Purified full-length untagged NBEAL2 (human, UniProt Q6ZNJ1-1 1-2754)
T3 construct: NBEAL2, human; also called 3xFlag-EGFP-SUMOstar-NBEAL2 after SUMOstar protease; source: FreeStyle 293-F, transiently transfected, purified (GFP-Trap agarose, eluted with SUMOstar protease); not shown: 3xFlag, N-terminal, cleaved; EGFP, N-terminal, cleaved; SUMOstar, N-terminal, cleaved

Measured: binding result

T1 sequence (Q6ZNJ1 1792-2754): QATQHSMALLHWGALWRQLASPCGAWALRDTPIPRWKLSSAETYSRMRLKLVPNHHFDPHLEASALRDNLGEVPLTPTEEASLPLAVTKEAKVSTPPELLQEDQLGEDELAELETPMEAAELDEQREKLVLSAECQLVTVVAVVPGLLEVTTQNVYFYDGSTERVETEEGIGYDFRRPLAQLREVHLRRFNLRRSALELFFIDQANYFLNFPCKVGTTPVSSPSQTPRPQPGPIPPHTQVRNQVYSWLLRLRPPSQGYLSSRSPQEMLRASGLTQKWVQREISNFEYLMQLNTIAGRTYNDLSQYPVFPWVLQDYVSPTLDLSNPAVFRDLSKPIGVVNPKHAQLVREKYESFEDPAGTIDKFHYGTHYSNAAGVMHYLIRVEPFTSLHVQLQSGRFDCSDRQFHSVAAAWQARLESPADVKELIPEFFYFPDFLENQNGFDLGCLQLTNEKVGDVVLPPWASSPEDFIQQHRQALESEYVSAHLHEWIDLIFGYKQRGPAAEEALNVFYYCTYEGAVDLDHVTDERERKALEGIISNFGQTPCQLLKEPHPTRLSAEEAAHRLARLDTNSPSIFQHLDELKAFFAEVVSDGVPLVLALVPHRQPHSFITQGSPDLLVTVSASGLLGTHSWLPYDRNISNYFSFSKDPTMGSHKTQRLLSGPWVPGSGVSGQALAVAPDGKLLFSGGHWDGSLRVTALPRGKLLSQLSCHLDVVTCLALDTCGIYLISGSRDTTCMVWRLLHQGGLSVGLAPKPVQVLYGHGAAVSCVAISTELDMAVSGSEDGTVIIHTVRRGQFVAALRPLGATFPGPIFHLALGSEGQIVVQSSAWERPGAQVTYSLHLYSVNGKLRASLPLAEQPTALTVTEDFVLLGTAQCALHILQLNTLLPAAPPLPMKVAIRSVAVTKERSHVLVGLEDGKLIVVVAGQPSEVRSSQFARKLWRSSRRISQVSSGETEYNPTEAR
T3 sequence (Q6ZNJ1 whole entry): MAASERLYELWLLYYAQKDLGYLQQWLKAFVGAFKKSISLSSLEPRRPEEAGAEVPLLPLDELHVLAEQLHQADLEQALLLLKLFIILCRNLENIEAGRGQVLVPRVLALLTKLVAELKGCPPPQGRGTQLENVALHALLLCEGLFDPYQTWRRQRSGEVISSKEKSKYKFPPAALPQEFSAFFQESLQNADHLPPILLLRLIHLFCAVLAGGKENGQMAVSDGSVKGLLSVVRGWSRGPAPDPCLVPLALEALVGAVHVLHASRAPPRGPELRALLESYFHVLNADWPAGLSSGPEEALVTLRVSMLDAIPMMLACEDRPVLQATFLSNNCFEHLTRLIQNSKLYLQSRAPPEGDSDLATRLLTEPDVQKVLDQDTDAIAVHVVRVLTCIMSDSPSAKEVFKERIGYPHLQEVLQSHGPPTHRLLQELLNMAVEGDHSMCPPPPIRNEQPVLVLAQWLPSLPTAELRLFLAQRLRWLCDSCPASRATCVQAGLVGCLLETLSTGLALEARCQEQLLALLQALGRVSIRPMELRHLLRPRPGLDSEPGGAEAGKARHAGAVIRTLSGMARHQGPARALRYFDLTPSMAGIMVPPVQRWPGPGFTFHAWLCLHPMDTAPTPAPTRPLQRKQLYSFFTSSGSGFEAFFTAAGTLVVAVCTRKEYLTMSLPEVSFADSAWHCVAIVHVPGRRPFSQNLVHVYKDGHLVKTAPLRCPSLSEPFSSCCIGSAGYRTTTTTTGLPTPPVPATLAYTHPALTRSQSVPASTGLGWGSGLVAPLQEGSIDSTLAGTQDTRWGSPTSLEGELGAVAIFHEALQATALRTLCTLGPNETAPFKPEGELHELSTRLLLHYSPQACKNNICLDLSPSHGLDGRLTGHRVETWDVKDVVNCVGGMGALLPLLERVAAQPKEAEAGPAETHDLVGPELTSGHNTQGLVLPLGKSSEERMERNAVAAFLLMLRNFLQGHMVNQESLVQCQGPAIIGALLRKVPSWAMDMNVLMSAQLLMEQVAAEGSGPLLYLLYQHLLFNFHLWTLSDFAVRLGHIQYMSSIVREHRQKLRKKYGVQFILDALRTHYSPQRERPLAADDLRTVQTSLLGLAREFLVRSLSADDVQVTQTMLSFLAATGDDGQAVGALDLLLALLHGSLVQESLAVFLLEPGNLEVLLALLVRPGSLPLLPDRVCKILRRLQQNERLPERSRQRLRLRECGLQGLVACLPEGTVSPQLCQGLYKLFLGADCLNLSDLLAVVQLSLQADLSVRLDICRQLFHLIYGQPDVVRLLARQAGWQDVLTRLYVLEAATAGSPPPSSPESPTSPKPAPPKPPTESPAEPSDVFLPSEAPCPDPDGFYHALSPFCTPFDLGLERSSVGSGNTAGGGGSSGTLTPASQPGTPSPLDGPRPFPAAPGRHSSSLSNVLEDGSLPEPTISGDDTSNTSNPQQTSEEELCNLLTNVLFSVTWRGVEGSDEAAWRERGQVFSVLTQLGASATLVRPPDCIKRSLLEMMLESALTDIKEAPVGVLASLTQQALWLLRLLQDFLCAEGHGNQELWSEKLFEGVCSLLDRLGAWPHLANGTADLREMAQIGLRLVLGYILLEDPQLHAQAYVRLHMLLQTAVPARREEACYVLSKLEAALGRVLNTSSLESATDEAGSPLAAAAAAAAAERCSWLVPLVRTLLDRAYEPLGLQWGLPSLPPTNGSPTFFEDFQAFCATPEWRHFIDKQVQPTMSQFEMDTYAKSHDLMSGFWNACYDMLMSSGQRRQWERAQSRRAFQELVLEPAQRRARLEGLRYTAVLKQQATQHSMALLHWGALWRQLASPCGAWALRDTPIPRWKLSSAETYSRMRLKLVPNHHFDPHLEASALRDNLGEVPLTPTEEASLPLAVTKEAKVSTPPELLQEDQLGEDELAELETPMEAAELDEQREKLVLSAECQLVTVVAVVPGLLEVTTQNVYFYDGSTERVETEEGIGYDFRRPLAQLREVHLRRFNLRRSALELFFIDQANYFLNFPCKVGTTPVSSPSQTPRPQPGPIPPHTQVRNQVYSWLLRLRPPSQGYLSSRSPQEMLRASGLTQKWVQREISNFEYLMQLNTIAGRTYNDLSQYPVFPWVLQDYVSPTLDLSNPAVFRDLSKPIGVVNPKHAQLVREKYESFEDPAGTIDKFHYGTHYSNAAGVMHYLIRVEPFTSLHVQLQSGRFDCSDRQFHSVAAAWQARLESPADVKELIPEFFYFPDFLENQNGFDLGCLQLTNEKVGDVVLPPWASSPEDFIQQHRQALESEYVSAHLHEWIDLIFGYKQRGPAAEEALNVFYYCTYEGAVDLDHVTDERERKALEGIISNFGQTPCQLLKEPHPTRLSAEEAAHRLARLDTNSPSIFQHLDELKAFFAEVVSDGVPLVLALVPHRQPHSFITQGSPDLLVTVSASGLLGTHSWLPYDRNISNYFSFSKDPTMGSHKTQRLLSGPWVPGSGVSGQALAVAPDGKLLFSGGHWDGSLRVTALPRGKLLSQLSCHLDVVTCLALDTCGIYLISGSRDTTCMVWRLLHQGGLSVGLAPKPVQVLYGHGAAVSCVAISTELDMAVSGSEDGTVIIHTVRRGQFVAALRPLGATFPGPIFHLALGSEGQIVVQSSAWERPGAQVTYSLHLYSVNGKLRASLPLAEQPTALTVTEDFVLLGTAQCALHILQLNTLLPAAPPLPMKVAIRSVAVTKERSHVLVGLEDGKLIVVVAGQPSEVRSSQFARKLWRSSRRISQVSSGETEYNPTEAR

B1: GST-CTLA4 (201–215) (domain or fragment, human, UniProt P16410 201-215, looked up)
chain: YVKMPPTEPECEKQF
notes: source: E. coli BL21(DE3), purified on Glutathione Sepharose 4B beads
binds: [1] | [2] | [3]
